Experimental data reported in patent US20210079444A1, “LABEL FREE DETECTION OF PROTEASE ACTIVITY” (VIB VZW, priority 2017, published 2021).
Square brackets hold non-standard residues; d marks the D form. Ends that are not written are not given here. Bpa = N[C@@H](Cc1ccc(C(=O)c2ccccc2)cc1)C(=O)O; Phe(4-CN) = N#Cc1ccc(C[C@H](N)C(=O)O)cc1

Columns and labels:
endoproteinase Glu-C = endoproteinase Glu-C (Staphylococcus aureus, UniProt P0C1U8)
Description: Peptides were first dissolved to 100 μg/μl in DMF and further diluted to 100 μg/ml in either a 10% acetonitrile/water mixture for labelling or a 50 mM ammonium bicarbonate buffer (pH 7.8) for bulk digestion experiments. Prior to labelling the chips with the peptides, they were cleaved into pieces of a few mm^2 and cleaned by sonication in acetone, rinsed with isopropyl alcohol and water and dried with under a stream of nitrogen. Next, remaining organic contaminants were removed in an 02 plasma, which also renders the surface hydrophilic (120 s, PVA-TEPLA GIGAbatch 310 M, 6000 sccm O2, 600 W, 750 mTorr). Immediately afterwards, the chips were immersed in separate wells of a polypropylene 96-well plate, using 100 μl of a 100 μg/ml peptide solution in 10% acetonitrile in water. After overnight incubation, the chips were rinsed excessively with deionized water. […]
After incubation for a specific time at 37° C., 750 μl of a solution with 100 μg/ml substrate and 3.3 μg/ml trypsin or endoproteinase Glu-C in 50-100 mM ammonium bicarbonate was injected in a C-18 reversed phase high-performance liquid chromatography column (Macherey-Nagel) and eluted by a water/acetonitrile gradient (Akta Purifier, GE). The molecular weight of separated fractions was determined using matrix-assisted laser desorption/ionisation time-of-flight mass spectrometry (Bruker MALDI-TOF).

trypsin [1] = molecular target: T1, trypsin (Sus scrofa, UniProt P00761); assay: Bulk (in-solution) trypsin digestion of peptide substrate, RP-HPLC separation and MALDI-TOF mass spectrometry, SERS of separated fractions; type: biochemical; settings: for change of 1003 cm^-1 phenylalanine SERS peak in cleaved fraction after trypsin cleavage: cleaved vs uncleaved fractions labelled on gold nanodome chips; for extent of substrate digestion by trypsin (RP-HPLC/MALDI-TOF): peptide 100 μg/ml, trypsin 3.3 μg/ml (1/30 w/w), 50 mM ammonium-bicarbonate pH 7.8, 37° C.
T1 construct: purchased Promega V5111
T1 sequence (P00761 9-231): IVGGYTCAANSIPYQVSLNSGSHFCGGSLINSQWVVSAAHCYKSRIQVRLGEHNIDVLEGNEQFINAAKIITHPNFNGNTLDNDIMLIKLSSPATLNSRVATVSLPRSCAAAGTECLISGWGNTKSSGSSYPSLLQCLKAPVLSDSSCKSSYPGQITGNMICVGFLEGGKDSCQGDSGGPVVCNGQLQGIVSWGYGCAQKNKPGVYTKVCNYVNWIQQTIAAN
Description: As a first step, the activity of the protease on the substrate in solution was monitored. RP-HPLC was used to separate the substrate from the digestion products, which are subsequently labelled on a nanodome platform. From the difference spectrum, the characteristic peaks of the cleaved-off and remaining fractions are derived. FIG. 4(a2-a4) depicts the results of this experiment for trypsin and its CALNNYGGGGVRGNF (100 μg/ml) (SEQ ID NO:3) substrate. The peptide was incubated with trypsin (3.3 μg/ml) at a 1/30 (w/w) ratio in a 50 mM ammonium-bicarbonate (pH 7.8) buffer in water, and separated with RP-HPLC (FIG. 4(a2)) after 0, 30 and 90 minutes of incubation. The RP-HPLC-separated peptides and their fragments were identified using MALDI-TOF mass spectrometry. […] The dimer formation is a consequence of the oxidation of the cysteine thiol groups upon which a disulphide bond is formed between two peptides. […] Subsequently, nanodome chips were labeled with cleaved and uncleaved fractions. […] Furthermore, the peaks at 618 cm^−1, 1030 cm^−1 and 1207 cm^−1 show a partial decrease, although their signal to noise ratio is low. All these peaks correspond to those attributed to phenylalanine (Table 1). From this experiment, it is concluded that the ratio between the 1003 cm^−1 peak and the 829-860 cm^−1 peaks (I1003/I829-860) is a correct metric for IF/IY, the cleavage of the substrate by trypsin.
The activity of trypsin on the peptides with unnatural aromatic amino acids was verified using HPLC/mass spectrometry, showing complete digestion of 100 μg/ml peptide after 1 hour incubation with a 4 μg/ml Trypsin concentration. Subsequently, cleaved and uncleaved fractions were labelled on a nanodome SERS substrate.

trypsin [2] = molecular target: T1, trypsin; assay: Trypsin hydrolysis of unbound peptide observed through SERS spectra of a non-separated mixture; type: biochemical; settings: peptide 100 μg/ml, trypsin 2 μg/ml, 2 hours of incubation, no RP-HPLC separation
Excerpt: Apart from a thiol-gold interaction, N-terminal primary amines can also lead to a charge-based adsorption on metal surfaces (ref 39). This effect may be additive in the case of cysteine, but could lead to the adsorption of unwanted amino acids on the gold surface. In a second set of in-solution experiments, a similar trypsin was run—CALNNYGGGGVRGNF (SEQ ID NO:3) assay without separating the fractions by RP-HPLC (FIG. 5). One nanodome chip was labelled with a reference solution of the peptide (100 μg/ml), another with a solution of peptide (100 μg/ml) and trypsin (2 μg/ml) after 2 hours of incubation. […] Furthermore, the SERS and difference SERS-spectra shown in FIG. 5 confirm the findings of the RP-HPLC experiment in FIG. 4(a).
(§1) Spectra were acquired on a WITec Alpha 300 R+ confocal Raman microscope equipped with spectrometer using a 600 lpmm grating, a −70° C. cooled CCD camera (Andor iDus 401 BR-DD) and a 785 nm diode laser (Toptica, XTRA II). Raman spectra of the peptide powders were acquired using a Zeiss 100×/0.9 EC Epiplan NEOFLUAR; ∞/0 objective and a laser power of 100 mW, measured before the objective. SERS spectra were acquired through a Zeiss 63×/1.0 W-Plan Apochromat ∞/0 objective with 2 mW laser power. […]

trypsin [3] = molecular target: T1, trypsin; assay: SERS-monitored trypsin hydrolysis of gold-nanodome bound peptides (with and without ovomucoid inhibitor); type: biochemical; settings: for decrease of SERS intensity ratio I1003/I829-860: gold-nanodome bound peptide
Description: In a third experimental setup, three CALNNYGGGGVRGNF (SEQ ID NO:3) labelled nanodome chips were incubated in a buffer without trypsin, with trypsin and with trypsin plus an ovomucoid inhibitor for 45 minutes (FIG. 6). […] On the chip with trypsin only, the surface bound peptides are cleaved, resulting in a decrease of 11003/1829-860 by 40-48%. […] Two possible origins are considered for the remaining signal at 1003 cm^−1. […] More likely, the remaining signal originates from peptides that are not accessible to the protease due to steric hindrance. This can be a result of a too dense monolayer of peptides (refs 11, 23) or inaccessible parts of the nanodome geometry. Especially in the latter case, the inaccessible peptides are probably located in the nanodome gaps and will contribute disproportionally strong to the SERS signal.
Spectra were acquired on a WITec Alpha 300 R+ confocal Raman microscope equipped with spectrometer using a 600 lpmm grating, a −70° C. cooled CCD camera (Andor iDus 401 BR-DD) and a 785 nm diode laser (Toptica, XTRA II). Raman spectra of the peptide powders were acquired using a Zeiss 100×/0.9 EC Epiplan NEOFLUAR; ∞/0 objective and a laser power of 100 mW, measured before the objective. SERS spectra were acquired through a Zeiss 63×/1.0 W-Plan Apochromat ∞/0 objective with 2 mW laser power. For real-time monitoring of enzymatic activity, the chip was placed in a metal petri dish filled with 1 ml 50 mM ammonium bicarbonate buffer (pH 7.8) inside a stage-top incubator at 37° C. (Okolab). Because of signal degradation upon laser illumination, each trace is the median spectrum of a spatially distributed map of 10×10 pixels in a 20×20 μm area with an integration time of 1 s on each point. In the real-time assay, every next trace was mapped on a different location on the SERS platform. […]
(§2) Starting from the 10×10 individual spectra, WITec Project Four® was used for removing cosmic rays. […] 11003 and 1829-860 were calculated by integrating the peaks at their respective positions and subtracting the background with a linear fit for the individual spectra. […]

trypsin [4] = molecular target: T1, trypsin; assay: Real-time SERS observation of trypsin activity on gold-nanodome bound peptide; type: biochemical
Description: Finally, CALNNYGGGGVRGNF (SEQ ID NO:3) labelled chips were incubated with trypsin under the Raman microscope for a real-time acquisition of SERS spectra. […] A new spectrum was acquired every 2-3 minutes with an integration time of 100 seconds. A relative decrease of I1003 versus the peaks at 829, 860, 948, 1248, 1330, 1603 and 1677 cm^−1 is visible within the first minutes after adding 0.2 μg/ml trypsin (8.6 nM) to a total volume of 1 ml (8.6 pmol), in agreement with Table 1 and the earlier experiments described in this work. SERS spectra after 2 minutes and 30 minutes of trypsin incubation show a further reduction of I1003 and I1206 with increasing incubation time (FIG. 7 (b)). […]
as §1, with “objective.” for “objective. SERS spectra were acquired through a Zeiss 63×/1.0 W-Plan Apochromat ∞/0 objective with 2 mW laser power.”
as §2

Chain of endoproteinase Glu-C (P0C1U8 69-336): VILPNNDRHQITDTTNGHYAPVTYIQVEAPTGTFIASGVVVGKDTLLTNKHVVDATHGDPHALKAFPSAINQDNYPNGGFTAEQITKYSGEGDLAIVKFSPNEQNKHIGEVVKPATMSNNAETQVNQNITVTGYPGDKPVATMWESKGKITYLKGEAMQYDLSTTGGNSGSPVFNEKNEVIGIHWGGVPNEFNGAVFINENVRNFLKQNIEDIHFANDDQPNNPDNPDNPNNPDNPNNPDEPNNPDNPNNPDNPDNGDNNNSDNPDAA

Molecule: CALNNYGGGGNNESWH
- conversion of substrate to products by endoproteinase Glu-C (RP-HPLC/mass spectrometry) (endoproteinase Glu-C; 4 hours of incubation, peptide 100 μg/ml, endoproteinase Glu-C 3.3 μg/ml): almost full conversion
- change of 754 cm^-1 and 1356 cm^-1 (tryptophan) SERS peaks upon endoproteinase Glu-C cleavage (endoproteinase Glu-C; cleaved peptide vs uncleaved dimer bound to nanodome chips): disappearance

Molecule: CALNN(bzF)GGGGVRGNF (CALNN[Bpa]GGGGVRGNF) [trypsin substrate analogue, tyrosine replaced by benzoyl-phenylalanine]
- change of 1003 cm^-1 phenylalanine SERS peak in cleaved fraction after trypsin cleavage (trypsin [1]): decrease

Molecule: CALNN(cnF)GGGGVRGNF (CALNN[Phe(4-CN)]GGGGVRGNF) [trypsin substrate analogue, tyrosine replaced by 4-cyano-phenylalanine]
- change of 1003 cm^-1 phenylalanine SERS peak in cleaved fraction after trypsin cleavage (trypsin [1]): complete disappearance

Molecule: CALNNYGGGGVRGNF (trypsin substrate) [trypsin substrate peptide with Tyr and Phe SERS reporters]
- extent of substrate digestion by trypsin (RP-HPLC/MALDI-TOF) (trypsin [1]; 30 minutes incubation): almost fully digested
- extent of substrate digestion by trypsin (RP-HPLC/MALDI-TOF) (trypsin [1]; 90 minutes incubation): fully cleaved
- change of 1003 cm^-1 phenylalanine SERS peak in cleaved fraction after trypsin cleavage (trypsin [1]): full disappearance
- extent of digestion by trypsin, from lack of 1003 cm^-1 phenylalanine SERS peak (trypsin [2]): fully digested
- decrease of SERS intensity ratio I1003/I829-860 (trypsin [3]; 45 minutes incubation): 40-48%
- decrease of SERS intensity ratio I1003/I829-860 (trypsin [3]; trypsin): ≤ 53%
- time course of digestion of gold-bound peptide in real-time monitoring (trypsin [4]; 8.6 nM trypsin concentration): immediate digestion within the first two minutes
- cleavage of accessible surface-bound substrate in real time (I1003/I829-860 versus time) (trypsin [4]; trypsin concentrations ranging from 1 to 0.2 μg/ml, 37° C., spectrum every 2-3 minutes): most of the accessible substrate was cleaved within the time-span of the first measurement

B1: ovomucoid inhibitor: Ovomucoid (Type II-0) Trypsin inhibitor from chicken egg white (Sigma, T9253) (protein, UniProt P01005 25-210, looked up)
Ovomucoid: AEVDCSRFPNATDKEGKDVLVCNKDLRPICGTDGVTYTNDCLLCAYSIEFGTNISKEHDGECKETVPMNCSSYANTTSEDGKVMVLCNRAFNPVCGTDGVTYDNECLLCAHKVEQGASVDKRHDGGCRKELAAVSVDCSEYPKPDCTAEDRPLCGSDNKTYGNKCNFCNAVVESNGTLTLSHFGKC
- inhibition of tryptic cleavage of surface-bound peptide (SERS spectrum vs reference chip) (trypsin [3]; trypsin plus ovomucoid inhibitor, 45 minutes, inhibitor 100 μg/ml, substrate CALNNYGGGGVRGNF on nanodome chip): full blockade of tryptic cleavage
